Where a chain is given by its changes, count along the chain named. In names and notes the source's numbering stands.
Key:
[1] = biological target: T1, human 5T4ECDHis (mature protein of SEQ ID NO: 99) (human, UniProt Q13641 32-355); experiment: BLI cross-block; competitor (immobilised): IgG1-5T4-H8-FEAR
T1 construct: ECD of human 5T4 (aa 1-355 of Uniprot Q13641) with C-terminal His tag; residues 1-31 are the signal peptide; also called ECD of human 5T4 with a C-terminal His tag
T1 sequence: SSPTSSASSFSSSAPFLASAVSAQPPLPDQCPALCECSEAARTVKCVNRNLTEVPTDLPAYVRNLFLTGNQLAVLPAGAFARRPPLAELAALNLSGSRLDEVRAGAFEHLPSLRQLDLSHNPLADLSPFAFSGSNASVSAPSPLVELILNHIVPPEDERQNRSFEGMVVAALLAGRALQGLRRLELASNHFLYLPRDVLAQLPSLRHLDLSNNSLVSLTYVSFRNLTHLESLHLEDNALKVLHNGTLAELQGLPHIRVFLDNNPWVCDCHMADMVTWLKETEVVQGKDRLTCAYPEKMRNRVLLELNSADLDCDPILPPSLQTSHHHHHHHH

[2] = biological target: T1, human 5T4ECDHis (mature protein of SEQ …); experiment: BLI cross-block; competitor (immobilised): IgG1-5T4-059-FEAR
[3] = biological target: T1, human 5T4ECDHis (mature protein of SEQ …); experiment: BLI cross-block; competitor (immobilised): IgG1-5T4-076-FEAR
[4] = biological target: T1, human 5T4ECDHis (mature protein of SEQ …); experiment: BLI cross-block; competitor (immobilised): IgG1-5T4-085-FEAR
[5] = biological target: T1, human 5T4ECDHis (mature protein of SEQ …); experiment: BLI cross-block; competitor (immobilised): IgG1-5T4-106-FEAR
[6] = biological target: T1, human 5T4ECDHis (mature protein of SEQ …); experiment: BLI cross-block; competitor (immobilised): IgG1-5T4-127-FEAR
[7] = biological target: T1, human 5T4ECDHis (mature protein of SEQ …); experiment: BLI cross-block; competitor (immobilised): IgG1-5T4-207-FEAR
[8] = biological target: T1, human 5T4ECDHis (mature protein of SEQ …); experiment: BLI cross-block; competitor (immobilised): IgG1-5T4-226-FEAR
[9] = biological target: T1, human 5T4ECDHis (mature protein of SEQ …); experiment: BLI cross-block; competitor (immobilised): IgG1-5T4-A1-F405L
[10] = biological target: T1, human 5T4ECDHis (mature protein of SEQ …); experiment: BLI cross-block; competitor (immobilised): IgG1-5T4-A3-F405L
[11] = biological target: T2, full length human 5T4 (SEQ ID NO: 1) on cells (human, UniProt Q13641 32-420); experiment: flow cytometry, MDA-MB-231 cells, PE secondary [III)F]
T2 construct: Uniprot Q13641; residues 1-31 are the signal peptide; Used both for transfected HEK-293 cells and for 5T4-expressing human tumor cell lines
T2 sequence: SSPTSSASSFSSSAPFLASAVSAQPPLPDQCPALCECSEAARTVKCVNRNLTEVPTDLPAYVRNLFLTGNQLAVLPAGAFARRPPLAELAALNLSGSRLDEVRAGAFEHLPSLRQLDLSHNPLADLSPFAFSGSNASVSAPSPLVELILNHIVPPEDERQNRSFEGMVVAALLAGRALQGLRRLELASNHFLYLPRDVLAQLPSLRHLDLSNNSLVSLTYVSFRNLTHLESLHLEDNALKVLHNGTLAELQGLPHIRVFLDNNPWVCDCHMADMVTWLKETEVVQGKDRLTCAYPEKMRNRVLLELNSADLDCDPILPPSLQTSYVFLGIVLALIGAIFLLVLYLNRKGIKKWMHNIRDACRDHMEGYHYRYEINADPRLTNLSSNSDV

[12] = biological target: T2, full length human 5T4 (SEQ ID NO: 1) on …; experiment: flow cytometry, HEK-293 cells transfected with human 5T4, PE secondary [II)G]
[13] = biological target: T3, full length cynomolgus monkey 5T4 on transfected HEK-293 cells (cynomolgus monkey, UniProt Q4R8Y9 35-420); experiment: flow cytometry, HEK-293 cells transfected with cynomolgus monkey 5T4, PE secondary [II)G]
T3 construct: Uniprot Q4R8Y9; residues 1-34 are the signal peptide; also called cynomolgus 5T4
T3 sequence: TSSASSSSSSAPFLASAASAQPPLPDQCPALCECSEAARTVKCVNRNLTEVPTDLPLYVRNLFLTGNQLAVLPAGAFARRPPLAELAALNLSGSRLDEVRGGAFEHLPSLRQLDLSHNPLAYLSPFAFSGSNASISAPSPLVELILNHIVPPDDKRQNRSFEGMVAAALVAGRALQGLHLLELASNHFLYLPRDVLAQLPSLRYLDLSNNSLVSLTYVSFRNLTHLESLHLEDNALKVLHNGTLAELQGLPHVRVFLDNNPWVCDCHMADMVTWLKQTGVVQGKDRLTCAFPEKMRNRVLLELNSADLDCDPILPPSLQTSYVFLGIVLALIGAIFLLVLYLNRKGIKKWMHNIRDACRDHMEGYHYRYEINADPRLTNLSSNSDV

[14] = biological target: T1, human 5T4ECDHis (mature protein of SEQ …); experiment: BLI, antibody on anti-human IgG Fc Capture biosensor, antigen in solution; 50 s dissociation window
[15] = biological target: T4, recombinant cynomolgus monkey 5T4 protein (Cusabio; cat. no. CSB-MP024093MOV) (cynomolgus monkey, UniProt Q4R8Y9 35-355); experiment: as above
T4 construct: extracellular domain; Bought protein; also called cynomolgus 5T4; cynomolgus monkey 5T4 extracellular domain
T4 sequence (looked up): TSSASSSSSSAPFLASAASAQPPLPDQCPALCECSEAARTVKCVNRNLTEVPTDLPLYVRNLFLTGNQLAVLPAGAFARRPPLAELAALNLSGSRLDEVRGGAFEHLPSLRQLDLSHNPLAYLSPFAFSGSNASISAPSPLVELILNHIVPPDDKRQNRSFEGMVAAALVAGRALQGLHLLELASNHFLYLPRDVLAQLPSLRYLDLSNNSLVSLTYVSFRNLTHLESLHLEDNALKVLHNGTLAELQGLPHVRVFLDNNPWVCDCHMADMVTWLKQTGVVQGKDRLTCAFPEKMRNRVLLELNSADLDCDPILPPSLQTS

[16] = biological target: T5, human 5T4 with L309 mutated to alanine, on HEK293 cells (human, UniProt Q13641 32-420); experiment: alanine scanning, flow cytometry on HEK293 cells, normalised to bsIgG1-5T4-A1-F405Lxb12-FEAR-FITC
T5 sequence: T2 sequence with L278A

[17] = biological target: T6, human 5T4 with P326 mutated to alanine, on HEK293 cells (human, UniProt Q13641 32-420); experiment: as above
T6 sequence: T2 sequence with P295A

[18] = biological target: T7, human 5T4 with L281 mutated to alanine, on HEK293 cells (human, UniProt Q13641 32-420); experiment: as above
T7 sequence: T2 sequence with L250A

B1: IgG1-5T4-127-FEAR (antibody, V domains shown)
VH: EVQLLESRGGLVQPGGSLRLSCAASGFTFSSYAMSWVRQAPGKGLEWVSTISGSGGSTYYADSVKGRFTISRDNSKKTLYLQMNSLRAEDTAVYYCAKDWGSGSYPAEYFQHWGQGTLVTVSS
VL: EIVLTQSPATLSLSPGERATLSCRASQSVSSYLAWYQQKPGQAPRLLIYDASNRATGIPARFSGSGSGTDFTLTISSLEPEDFAVYYCQQRSNWLMYTFGQGTKLEIK
notes: Monospecific, bivalent human IgG1 kappa with L234F, L235E, D265A, K409R (FEAR)
corrected association response [1]: -0.01 nm
corrected association response [2]: -0.1 nm
corrected association response [3]: -0.02 nm
corrected association response [4]: 0 nm
corrected association response [5]: -0.02 nm
corrected association response [6]: -0.01 nm
corrected association response [7]: 1.29 nm
corrected association response [8]: 1.51 nm
corrected association response [9]: 0.87 nm
corrected association response [10]: 0.01 nm
EC50 (read off the curve) [11]: ~0.03 µg/mL
EC50 (read off the curve) [12]: ~0.03 µg/mL
EC50 (read off the curve) [13]: ~0.02 µg/mL
Kd [14]: 27 nM
koff [14]: 0.016 s⁻¹
kon [14]: 580000 M⁻¹ s⁻¹
Kd [15]: 41 nM
koff [15]: 0.015 s⁻¹
kon [15]: 370000 M⁻¹ s⁻¹

B2: bsIgG1-b12-FEALx5T4-226-FEAR-FITC (bispecific antibody, V domains shown)
VH 1: QVQLVQSGAEVKKPGASVKVSCQASGYRFSNFVIHWVRQAPGQRFEWMGWINPYNGNKEFSAKFQDRVTFTADTSANTAYMELRSLRSADTAVYYCARVGPYSWDDSPQDNYYMDVWGKGTTVIVSS
VL 1: EIVLTQSPGTLSLSPGERATFSCRSSHSIRSRRVAWYQHKPGQAPRLVIHGVSNRASGISDRFSGSGSGTDFTLTITRVEPEDFALYYCQVYGASSYTFGQGTKLERK
VH 2: QVQLQQWGAGLLKPSETLSLTCAVYGGSFSGYYWSWIRQPPGKGLEWIGEIDHSGSTNYNPSLKSRVTISVDTSKNQFSLKLSSVTAADTAVYYCAAWFGELWDYYYGMDVWGQGTTVTVSS
VL 2: EIVLTQSPATLSLSPGERATLSCRASQSVSSFLAWYQQKPGQAPRLLIYDASNRATGIPARFSGSGSGTDFTLTISSLEPEDFAVYYCQQRSNWPLTFGQGTRLEIK
notes: b12 arm IgG1 FEAL, 5T4 arm IgG1 FEAR
Z-score (fold change) of binding [16]: -1.63
Z-score (fold change) of binding [17]: -1.67
Z-score (fold change) of binding [18]: -1.65
